Laboratory results from the RNAGym collection of RNA variant scans (doi:10.7554/elife.80360).

B1: HDV Ribozyme (parent)
chain: GGCCGGCAUGGUCCCAGCCUCCUCGCUGGCGCCGGCUGGGCAACAUUCCGAGGGGACCGUCCCCUCGGUAAUGGCGAAUGGGACCCA

Variants of: B1
Experiment: self-cleavage, relative activity (ratio to wild type); higher = more cleavage; co-transcriptional

Variant | self-cleavage
GGCCGGCAUGGUCCCAGCCUCCUCACUGGCGCCGGCUGGGCAACAUUCCGAGGGGACCGUCCCCUCGGUAAUGGCGAAGGGGACCCA [G25A U79G] | 0
GGCCGGCAUGGUCCCAGCCUCCUCCCUGGCGCGGGCUGGGCAACAUUCCGAGGGGACCGUCCCCUCGGUAAUGGCGAAUGGGACCCA [G25C C33G] | 0.201
GGCCGGCAUGGUCCCAGCCUCCUCCCUGGCGCCGGCUGGGCAACAUUCCGAGGGGACCGUCCCCUCGGUAAUGGUGAAUGGGACCCA [G25C C75U] | 0
GGCCGGCAUGGUCCCAGCCUCCUCCCUGGCGCCGGCUGGGCAACAUUCCGAGGGGACCGUCCCCUCGGUAAUGGGGAAUGGGACCCA [G25C C75G] | 0.185
GGCCGGCAUGGUCCCAGCCUCCUCCCUGGCGCCGGCUGGGUAACAUUCCGAGGGGACCGUCCCCUCGGUAAUGGCGAAUGGGACCCA [G25C C41U] | 0.0707
GGCCGGCAUGGUCCCAGCCUCCUCCCUGGCGCCGGCUGGGAAACAUUCCGAGGGGACCGUCCCCUCGGUAAUGGCGAAUGGGACCCA [G25C C41A] | 0.0898
GGCCGGCAUGGUCCCAGCCUCCUCCCUGGCGCCGGCUGGGCAACAUUCCGAGGGGAUCGUCCCCUCGGUAAUGGCGAAUGGGACCCA [G25C C57U] | 0.219
GGCCGGCAUGGUCCCAGCCUCCUCCCUGGCGCCGGCUGGGCAACUUUCCGAGGGGACCGUCCCCUCGGUAAUGGCGAAUGGGACCCA [G25C A45U] | 0.128
GGCCGGCAUGGUCCCAGCCUCCUCCCUGGCGCCGGCUGGGCAACCUUCCGAGGGGACCGUCCCCUCGGUAAUGGCGAAUGGGACCCA [G25C A45C] | 0.0875
GGCCGGCAUGGUCCCAGCCUCCUCCCUGGCGCCGGCUGGGCACCAUUCCGAGGGGACCGUCCCCUCGGUAAUGGCGAAUGGGACCCA [G25C A43C] | 0.0554
GGCCGGCAUGGUCCCAGCCUCCUCCCUGGCGCCGGCUGGGCAACAUUCCGAGGGGACCGUCCCCUCGGUAAUGGCGAAUGGGAACCA [G25C C84A] | 0.0489
GGCCGGCAUGGUCCCAGCCUCCUCCCUAGCGCCGGCUGGGCAACAUUCCGAGGGGACCGUCCCCUCGGUAAUGGCGAAUGGGACCCA [G25C G28A] | 0.0297
GGCCGGCAUGGUCCCAGCCUCCUCACUGGCGCCGGCUGGGCAACAUCCCGAGGGGACCGUCCCCUCGGUAAUGGCGAAUGGGACCCA [G25A U47C] | 0.107
GGCCGGCAUGGUCCCAGCCUCCUCCCUGGCGCCGGCUGGGCAACAUUCCGAGGGGACCGUCCCCUCGGUAAUGGCGAAUGGGACGCA [G25C C85G] | 0.125
GGCCGGCAUGGUCCCAGCCUCCUCCCUGGCGCCGGCUGGGCAACAUUCCGAGGGGACCGUCCCCUCGGUAAUGGCGAAUGGGACUCA [G25C C85U] | 0
GGCCGGCAUGGUCCCAGCCUCCUCCCUGGCGCCGGCUGGGCAACAUUCCGAGGGGACCGUCCCCUCGGUAAUGGCGACUGGGACCCA [G25C A78C] | 0.0773

Variant | self-cleavage
GGCCGGCAUGGUCCCAGCCUCCUCACUGGCGCCGGCUGGGCAACAUUCCGAGGGGACCGGCCCCUCGGUAAUGGCGAAUGGGACCCA [G25A U60G] | 0.125
GGCCGGCAUGGUCCCAGCCUCCUCACUGGCGCCGGCUGGGCAACAUUCCGAGGGGACCGUCCCCUCGGCAAUGGCGAAUGGGACCCA [G25A U69C] | 0.302
GGCCGGCAUGGUCCCAGCCUCCUCACUGGCGCCGGCUGGGCAACAGUCCGAGGGGACCGUCCCCUCGGUAAUGGCGAAUGGGACCCA [G25A U46G] | 0.262
GGCCGGCAUGGUCCCAGCCUCCUCACUGGCGCCGGCUGGGCAACACUCCGAGGGGACCGUCCCCUCGGUAAUGGCGAAUGGGACCCA [G25A U46C] | 0.0831
GGCCGGCAUGGUCCCAGCCUCCUCACUGGCGCCGGCUGGGCAACAAUCCGAGGGGACCGUCCCCUCGGUAAUGGCGAAUGGGACCCA [G25A U46A] | 0
GGCCGGCAUGGUCCCAGCCUCCUCCCUGGCGUCGGCUGGGCAACAUUCCGAGGGGACCGUCCCCUCGGUAAUGGCGAAUGGGACCCA [G25C C32U] | 0.0755
GGCCGGCAUGGUCCCAGCCUCCUCCCUGGCGGCGGCUGGGCAACAUUCCGAGGGGACCGUCCCCUCGGUAAUGGCGAAUGGGACCCA [G25C C32G] | 0.104
GGCCGGCAUGGUCCCAGCCUCCUCCCUGGCGCCGGCUGGGCAACAUUCCGAGGGGACCGUCACCUCGGUAAUGGCGAAUGGGACCCA [G25C C62A] | 0.18
GGCCGGCAUGGUCCCAGCCUCCUCACCGGCGCCGGCUGGGCAACAUUCCGAGGGGACCGUCCCCUCGGUAAUGGCGAAUGGGACCCA [G25A U27C] | 0.538
GGCCGGCAUGGUCCCAGCCUCCUCACGGGCGCCGGCUGGGCAACAUUCCGAGGGGACCGUCCCCUCGGUAAUGGCGAAUGGGACCCA [G25A U27G] | 0.133
GGCCGGCAUGGUCCCAGCCUCCUCCCUGGCGCCGGCUGGGCAACAUUCCGAGGGGACCGUCCCCUCGGUAAUGGCGUAUGGGACCCA [G25C A77U] | 0
GGCCGGCAUGGUCCCAGCCUCCUCCCUGGCGCCGGCUGGGCAACAUUCCGAGGGGACCGUCCCCUCGGUAAUGGCGCAUGGGACCCA [G25C A77C] | 0.104
GGCCGGCAUGGUCCCAGCCUCCUCCCUGACGCCGGCUGGGCAACAUUCCGAGGGGACCGUCCCCUCGGUAAUGGCGAAUGGGACCCA [G25C G29A] | 0.155
GGCCGGCAUGGUCCCAGCCUCCUCCCUGGCGCCGGCUGGGCCACAUUCCGAGGGGACCGUCCCCUCGGUAAUGGCGAAUGGGACCCA [G25C A42C] | 0.128
GGCCGGCAUGGUCCCAGCCUCCUCCCUGGCGCCGGCUGGGCUACAUUCCGAGGGGACCGUCCCCUCGGUAAUGGCGAAUGGGACCCA [G25C A42U] | 0
GGCCGGCAUGGUCCCAGCCUCCUCCCUGGCGCCGGCUGGGCGACAUUCCGAGGGGACCGUCCCCUCGGUAAUGGCGAAUGGGACCCA [G25C A42G] | 0
